Assay results taken from the supplement of paper PMC9170038.

Experiments:
MS2 coat protein [1] = experiment: apparent KD of MS2 coat protein, switch ON state; designed switch direction (-1 OFF switch, 1 ON switch): -1; higher = weaker reporter binding; conditions: FMN input: 0 or 200 uM; Eterna round: R93 (includes R88 designs)
How it was run: (§1)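 Titrations with SNAP-549-labelled MS2 coat protein ran in twofold steps from 0.7 or 1.5 nM to 3 µM, each step taking 0.8–1.5 h at the start and 10–20 min toward the end. The targets were designed RNA switches transcribed on-chip from Illumina sequencing clusters, held in 100 mM Tris-HCl pH 7.5, 80 mM KCl, 4 mM MgCl2, without or with constant ligand. Apparent KD was taken per design as the median of normalised cluster binding-curve fits.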

MS2 coat protein [2] = experiment: apparent KD of MS2 coat protein, switch OFF state (with FMN for OFF switches, without FMN for ON switches); designed switch direction (-1 OFF switch, 1 ON switch): -1; higher = weaker reporter binding; conditions: FMN input: 0 or 200 uM; Eterna round: R93 (includes R88 designs)
How it was run: as §1

Sequence | apparent KD of MS2 coat protein (MS2 coat protein [1]) | apparent KD of MS2 coat protein (MS2 coat protein [2])
AAAAAGUGAGGAUAUACGCGAACAAAAAUAAAAAAGAAAGCGUAGAAGGCACAUGAGGAUCACCCAUGUCCAAA [Alfred 64% 5] | 27.7 nM | 41.1 nM
AACUGACAUGAGGAUCACCCAUGUCAGGAUAUGAUAUGUAAAAAAAAAAAAAUACUUAUCAGAAGGGACAUGAA [Design 44: Sub-opt CB] | 15.1 nM | 14.1 nM
AAGAAGUCAGGAUAUGCUAAAGAAAUAAAAAUAAAUAAAGAACAUGAGGAUCACCCAUGUAGAAGGGACAAGAA [Sewadjkare Hori] | 72.1 nM | 33.3 nM
AAGAAGUCAGGAUAUGCCAGAGAUCAAGAAAGUGACGAAUAGCAGAAGGGACAUGAGGAUCACCCAUGUAAAGA [Opal 9] | 43.5 nM | 35.9 nM
GGAGGCGUAGGAUAUACAUGAGGAUCACCCAUGUGAGAGAAAAAAGUGAGAAAGAAAAGUAGAAGGACGUUUCG [salish99-ex3-127] | 45.4 nM | 92.1 nM
AAGAAACAUGAGGAUCACCCAUGUGAGGAUAUGGAAAAGAAAAGAAAAGAAAGAAGAACCAGAAGGCACAAAGG [Neferkare (VI) Pepiseneb] | 71.8 nM | 50.8 nM
AAAAUGUUAGGAUAUGUGAAGGCGUCUGAUAGACGAGGCCUGCAGAAGGAACAUGAGGAUCACCCAUGUAAAAA [Mod 3 of Nando's Round 1 Power Srip] | 34 nM | 25.6 nM
GGAAAGCGAGGAUAUACAUGAGGAUCACCCAUGUAAAAGAAAAGAAAAGAAAGAAAAUGUAGAAGGCGCAAAAA [Exclusion 3 plus] | 53.5 nM | 54.4 nM
AAGAAAGGAGGAUAUACAUGAGGAUCACCCAUGUAAAAGAAAGAAAAGGGAAAGAAAAGUAGAAGGCCUAAGAA [Usermaatre-meryamun Ramesses III] | 39.2 nM | 28.7 nM
AGCUAGUCAGGAUAUACGAACAAGUCAAAAGACGAGAACGGACAUGAGGAUCACCCAUGUAGAAGGGACUAGCA [Diamond 7] | 16.1 nM | 13.6 nM
AACAGUACAGGAUAUACAUGAGGAUCACCCAUGUGAAAAUUAAGUGGAAAACCACAAAGUAGAAGGGUACUGAA [Mat - Exclusion 3 - Eli mod - D58] | 21.4 nM | 61.7 nM
UAAAGACAUGAGGAUCACCCAUGUGAGGAUAUGUGAGACAACAGAACAUCAAGUACAAGCAGAAGGCACAGAAA [JR_Exc001_Sub019] | 51.8 nM | 62.7 nM
ACCUGACAUGAGGAUCACCCAUGUCAGGAUAUGACUUCGAAAAAAAAAAAAAACGAUGUCAGAAGGGACAUGGG [Design 70: Sub-opt P] | 15.4 nM | 15.9 nM
AGCACGUCAGGAUAUACGAACACAAAGGGUAACAACAAGGGACAUGAGGAUCACCCAUGUAGAAGGGACAAGCA [Diamond 95] | 73.5 nM | 79.2 nM
AAAAAGUGAGGAUAUGCAGUGGCCUGUAGACGCAAGCACUUGUAGAAGGCACAUGAGGAUCACCCAUGUUUAAA [EX4 Malc#30] | 30.9 nM | 28 nM
CCCUCACAUGAGGAUCACCCAUGUUAGGAUAUCUACCAGGAGCCUAAAAUGGCCCAACGGAGAAGGAACGUGCA [Arbire] | 19.2 nM | 16.9 nM
AAAGAUGCAGGAUAUACAUGAGGAUCACCCAUGUUAGACCAAAAAUGGGAAAAAGAAAGUAGAAGGGCAUAAAA [Ex 3 May 34] | 43.2 nM | 203 nM

Sequence | apparent KD of MS2 coat protein (MS2 coat protein [1]) | apparent KD of MS2 coat protein (MS2 coat protein [2])
AAAAACUCAGGAUAUAUUAUGGGACAAUGAAGGAAGAUAAAACAUGAGGAUCACCCAUGUAGAAGGGAGAAAAA [JR_Exclusion2_Sub2] | 57.7 nM | 62.8 nM
UGGGAGUCAGGAUAUACGAACAUGUCGCCAGAUGUCAAGGUACAUGAGGAUCACCCAUGUAGAAGGGACGAGAA [salish99-Ex2-28] | 53.1 nM | 34.1 nM
AAGAAGGCAGGAUAUACAUGAGGAUCACCCAUGUAAAAGAAAGAGGGAAAAGAGAAAAGUAGAAGGGCCAAGAA [Setepenre-meryamun Alexander III] | 27.8 nM | 75 nM
UAUAGACAUGAGGAUCACCCAUGUGAGGAUAUGAGUGACUACAGGACAUCACGUACAAUCAGAAGGCACAGAAA [JR_Exc001_Sub016] | 47.9 nM | 60.9 nM
AAGUAGGUAGGAUAUACAUAGAUACAGAUUCAUGUGGAACUACAUGAGGAUCACCCAUGUAGAAGGACCUAAUA [AJ 40] | 30.2 nM | 126 nM
AACAGACAUGAGGAUCACCCAUGUGAGGAUAUGGCAAUCGAUAGAACUAGAAUGACAACCAGAAGGCACAGCAA [JR_Exc001_Sub004] | 77.6 nM | 86.3 nM
AAUAAACAUGAGGAUCACCCAUGUGAGGAUAUGGUAUAAUAAGGACAGUAAUGAUAAACCAGAAGGCACAAAUA [JR_Exc001_Sub1102] | 30.5 nM | 34.7 nM
AACUAGUCAGGAUAUACGAACAUGUCAAAAAACAUAAAGGGACAUGAGGAUCACCCAUGUAGAAGGGACUAACA [74%, Web mod - With 5 less G's] | 299 nM | 500 nM
AAAAAACAUGAGGAUCACCCAUGUGAGGAUAUGACGUAAAUAAAGAAAGAAUAAAUCGUCAGAAGGCACACCAA [Mat - Exclusion 1 - Eli mod - D71] | 31.4 nM | 49.2 nM
AGCUAGUCAGGAUAUACGAACAUGUCGAAAGACGUGAAGGGACAUGAGGAUCACCCAUGUAGAAGGGACUAGCA [Mat - Exclusion 2 - JL mod - D1] | 34.2 nM | 120 nM
AAGAACGAAGGAUAUACAUGAGGAUCACCCAUGUAAAAGAAAGAAGGGAAAGAGAAAAGUAGAAGGUCGAAGAA [Usermaatre Piye] | 22.2 nM | 24.4 nM
AAGACGUAAGGAUAUAUUAUGGGACAAUGAAGGAAGAUAAAACAUGAGGAUCACCCAUGUAGAAGGUGCAAAGA [JR_Exclusion2_Sub3] | 40.3 nM | 32.8 nM
AAAAAGGCAGGAUAUACAUGAGGAUCACCCAUGUGCAAAAAAAAAAAAAAAAAAACAUGUAGAAGGGCCGAAAA [Skynet (1?)] | 45.2 nM | 86.3 nM
AAGGGACAUGAGGAUCACCCAUGUGAGGAUAUGCUAUGGAAAAUAAAAAAUAAACAUAGCAGAAGGCAUAAAAA [Mat - Exclusion 1 - Eli mod - D37] | 64.8 nM | 72.3 nM
AGCGAGUAAGGAUAUCGGAAAGGACACGAAAGUGACAAAGACGAGAAGGUACAUGAGGAUCACCCAUGUAAAAA [milkweed 25] | 26.8 nM | 17.8 nM
AGGAAACAUGAGGAUCACCCAUGUGAGGAUAUUCAAAAGAAAAGAAAAGAAAGAAGAAGAAGAAGGCACAAGAA [Khayu] | 32.8 nM | 33.5 nM
GAAGUGUUAGGAUAUCGAUGAAUAAUAAAACAAAGGAACAUUGAGAAGGAACAUGAGGAUCACCCAUGUAUAAC [May 81] | 27.7 nM | 25.2 nM
